Measurements as given in PMC2034485 (Nucleic Acids Research, 2007).

B1: GST-fused Rad18 (1–99), Ring domain (domain or fragment)
chain: MDSLAESRWPPGLAVMKTIDDLLRCGICFEYFNIAMIIPQCSHNYCSLCIRKFLSYKTQCPTCCVTVTEPDLKNNRILDELVKSLNFARNHLLQFALES

How the values were obtained:
ubiquitin = ubiquitin (UniProt P0CG48 1-76); experiment: SPR
human Rad6 (hHR6B) = human Rad6 (hHR6B) (human, UniProt P63146 1-152); experiment: SEC
Sequence of human Rad6 (hHR6B) (P63146 whole entry): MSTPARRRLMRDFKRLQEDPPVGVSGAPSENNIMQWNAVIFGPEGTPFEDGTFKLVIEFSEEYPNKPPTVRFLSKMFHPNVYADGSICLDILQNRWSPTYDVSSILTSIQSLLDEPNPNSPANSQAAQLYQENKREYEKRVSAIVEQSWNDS

| Binder | Kd (ubiquitin) [µM] | binding result (human Rad6 (hHR6B)) |
| --- | --- | --- |
| TLKQVTKVDCPVCGVNIPESHINKHLDSCLSREEKKES (domain or fragment) [GST-ZnF (Rad18 zinc finger domain)] | 42.1 | – |
| TLKQVTKVDCPVFGVNIPESHINKHLDSCLSREEKKES (domain or fragment) [GST-C207F ZnF] | 192 | – |
| B1 | – | binds |
